Assay results taken from patent publication US20070172423A1, “Composition and method for modulating vasculogenesis for angiogenesis” (priority 1998, published 2007).

Legend:
[1] = system: endothelial progenitor cells (EPCs); test: EPC mobilization assay; type: in vivo, mice
Method: For EPC mobilization assay, mice were treated with PDGF-CC protein (4.5 μg/day) immediately after femoral artery ligation using subcutaneously implanted osmotic minipumps (Alzet, type 2001). After two or five days, mice were sacrificed and spleens harvested for EPC analysis using procedures described previously (Asahara et al., Circ Res, 1999 85:221-8; Dimmeler et al., J. Clin. Invest., 2001 108:391-397). Spleens were mechanically minced using syringe plungers and laid over Ficoll to isolate splenocytes. Splenocytes were seeded into fibronectin-coated 24-well plates in 0.5 ml EBM medium. After three weeks of culturing, adherent cells were stained for Dil-Ac-LDL/lectin and number of the positive cells counted. Late outgrowth EPCs (after 3 weeks of culture) were identified by metabolic uptake of DiI-acetylated-LDL (Molecular Probes) and positive staining of Alexa 488-labeled isolectin B4 (Molecular Probes). Quantification of the EPC density was performed by confocal microscopy in five microscopic fields at 200× magnification, and average EPC density calculated.
To examine the possible mechanism of how PDGF-CC stimulates vessel growth and maturation, we next assessed its effects on vascular endothelial progenitor cells (EPCs). […] By scoring after 3 weeks, only late-outgrowth EPCs, but not surviving sloughed-off endothelial cells, are selectively assayed (Lin et al., J Clin Invest, 2000 105:71-7; Rafii, S., J Clin Invest, 2000 105:17-9).

hSMC = test: Cell migration assay, hSMC; type: cell-based, human; conditions: wounded monolayer, 20 hours
Method: Cell migration assays were performed on growth arrested confluent HMVEC, BAEC or hSMC cells. Cell monolayers were wounded with a rubber policeman and washed with serum-free medium. Dishes were then incubated for 20 hours in serum-free medium containing VEGF165, PDGF-AA, (R&D Systems, Minneapolis USA) or PDGF-CC. Each assay included two dishes per condition and was repeated three times independently. Cells were photographed at 40× magnification, and migration percentage corresponding to the ratio between area of the cells and the total area of the wound (Biocom visiol@b 2000 version 4.52, San Diego). […] After 7 days, viable cells were counted using the cell Titer-glo luminescent cell viability assay. […] Two days later, cell numbers were counted and proliferation percentage calculated, using cells cultured in medium containing 10% serum as control. […] Aortic rings were analysed at day 9 of culturing. […]
(§1) The mitogenic and chemotactic effect of PDGF-CC was then tested on SMCs and perivascular fibroblast cells, and the effect of PDGF-CC was compared to that of VEGF and PDGF-AA in both cultured cells and the aortic ring assay (Blacher et al., Angiogenesis, 2001 4:133-42). […] In the aortic ring assay, we quantified the growth and emigration of perivascular fibroblasts from the intact vessel using computer-assisted image analysis after treatment with VEGF and different PDGFs at different concentrations. […]

PDGFR-α = PDGFR-α activation in cultured hSMC and NIH-3T3 cells (immunoprecipitation, pTyr blot); type: cell-based; conditions: treated cultured hSMC and NIH-3T3 fibroblast cells
Method: RNase protection analysis (RPA) was performed according to the manufacturer's protocol (Ambion) to investigate gene expression at mRNA level. Riboprobes were prepared using RNA polymerase (Promega) and ^32P-UTP (Amersham). Mouse β-actin cDNA (250 bp, Ambion) was used as an internal control. For Western blot assay, subconfluent cells were rinsed with cold PBS supplemented with 5 µg/ml of antiprotease cocktail, lysed in RIPA buffer and analyzed on 10% acrylamide SDS PAGE in reducing condition. Two antibodies to PDGFR-α (rabbit polyclonal antibody, dilution: 1/500, Santa Cruz, sc431; and monoclonal peroxidase-labeled anti-rabbit antibody, dilution: 1/2500, Sigma, A-2074) were used for PDGFR-α protein detection. Membranes were developed using the Supersignal System (Pierce). […] The precipitants were analysed on SDS-PAGE, and immunoblotted using a monoclonal anti-phosphotyrosine antibody (Santa Cruz).
as §1

B1: PDGF-CC: recombinant human PDGF-CC core domain homodimer, residues 230-345 of full-length PDGF-C (SEQ ID NO:40), produced in baculovirus infected insect cells (protein)
chain: GRKSRVVDLNLLTEEVRLYSCTPRNFSVSIREELKRTDTIFWPGCLLVKRCGGNCACCLHNCNECQCVPSKVTKKYHEVLQLRPKTGVRGLHKSLTDVALEHHEECDCVCRGSTGG
modifications: homodimer; PDGF-C core domain
Q: What does the source list for B1?
A: mobilization of EPCs ([1]; baseline conditions (no ischemia)): did not affect; augmentation of EPC mobilization ([1]; femoral artery ligation, day five): persisted to day five, albeit at a lower level; augmentation of EPC mobilization above control group ([1]; femoral artery ligation, two days, 4.5 μg/day via minipump): approximately 3 fold; augmentation of EPC mobilization compared with the vehicle group (FIG. 38 legend) ([1]; from day 2 to day 5 after hind limb ischemia): ~4 fold; hSMC migration (hSMC): stimulated; PDGFR-α activation (pTyr) (PDGFR-α): highly activated
